# ± gives the uncertainty stated by the source.
# Test: amyloid nucleation score (Sup35N fusion, yeast selection) (log enrichment); library NNK1; higher = more nucleation; inactive = no reads after selection
# In short: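 Nucleation score is defined as the DiMSum log enrichment of output over input reads, with centring on the mode score of non-aggregating sequences. A minimum of 100 input reads was required for each sequence. Reads came from Illumina sequencing of plasmid inserts from psi-negative yeast expressing Sup35N fused to peptides of 20 random codons, induced with 100 μM copper sulfate for 24 hours and grown 7 days at 30°C on medium lacking adenine and uracil.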
row,Substance,amyloid nucleation score
1,YAKHCAEGYGFLGWSLWAVR,0.106 ± 0.34
2,MFTIF,0.045 ± 0.3
3,CIISNVCTRVGGKMGSYGYS,0.133 ± 0.4
4,GVMCIMYNFSHYYLSVVNNR,7.77 ± 0.083
5,LIFLDMAVL,-0.403 ± 1.4
6,IATKGKDVVFVRCGPDPQL,1.04 ± 0.53
7,GRLGITSMMPLGCVINWPRG,3.02 ± 0.13
8,TLGAVHTVHVRFGESSNVFL,0.055 ± 0.74
9,HLINLSDEIQYSYCNKRMVS,inactive
10,VTCRLPETMPGGTWLNMIIR,inactive
11,FLLWKGTIDIMRWHVFASN,-0.847 ± 0.79
12,GEIITWLSGIPLDTVCILRM,-0.229 ± 0.25
13,VFVSKNWGTCRHGRDSCC,0.507 ± 0.26
14,MYISYSLNKTPIVFAPCTVH,-0.018 ± 0.48
15,ASFHNVQIGAYNMCKMNKGC,1.75 ± 0.34
16,FASKRWLWSVEQLSRLSNGT,-0.087 ± 0.21
17,IVWESLFNKFAITVGMLGFM,1.63 ± 0.43
18,VGDCSSVFCVTSFDWVSFYV,2.89 ± 0.098
19,WINYRRDPTAHSNSYFRVGI,0.059 ± 0.58
20,TWDSPVPG,0.208 ± 0.29
21,DLVTH,0.015 ± 0.83
22,GLRCFCTFHCMWFVLNSSN,0.025 ± 0.34
23,VYAQMALLR,-0.164 ± 0.62
24,ANMDWGRAMFWDGRVGMVRS,-0.645 ± 1.7

row,Substance,amyloid nucleation score
1,FLMPCFMKVGFVREEPWWRR,0.096 ± 0.78
2,RNLLVEFSLVSKWGLSSSWR,0.557 ± 0.51
3,CFVPY,-0.109 ± 0.53
4,MLVCILSVFDKNPR,2.78 ± 0.11
5,PMMLDDTPKRSKQPHWIGGH,-0.584 ± 2.1
6,ASMID,0.002 ± 0.27
7,CSAMPAFWAGHRSGASLHER,0.017 ± 0.4
8,ILERSHRVGYCAHLLCISVN,0.171 ± 0.63
9,YECGFLLSLVRATKLLNSAC,0.146 ± 0.28
10,KMLVGHS,0.087 ± 0.83
11,RVRNMPTPSLSHMNLFSSVG,-0.038 ± 0.35
12,DRFVVVLCFTDQ,0.452 ± 0.46
13,QHKTRQYHVSPVRVTIL,0.135 ± 0.65
14,EDMPFMTLKVIVFVTLMHLR,2.02 ± 0.62
15,ENDVLELFRFSLCLCHRPGG,inactive
16,YGKWWWVYRKTSVRRGDGAG,0.49 ± 0.54
17,SNFTEVLLSECFLVWLMFTH,0.089 ± 0.87
18,TTSFRHSVYQDYGLSVIDCG,-0.351 ± 0.78
19,HLLWETSMQRLMSHIFTSSR,0.022 ± 0.43
20,FFWSYAYIVIRLVSTKCWY,0.011 ± 0.28
21,MHRYF,-0.286 ± 0.37
22,PRSVVSTEPSGTVGVPKENK,-0.839 ± 0.62
23,VRFSVLKVTVLTKARNEVST,1.7 ± 0.24
24,DDLACRSQ,0.614 ± 0.27

row,Substance,amyloid nucleation score
1,YNRDRECWRIS,1.17 ± 0.53
2,YSMIPKITSKP,0.028 ± 0.29
3,PDIRYAFVNFDYLATIWVNG,-1.86 ± 1.7
4,DCGDSKRYVRITMFYFNRII,-0.262 ± 0.34
5,LCLGHRH,-0.818 ± 1.6
6,ERFCQGSCCNNFMGVFIRES,5.68 ± 0.077
7,FLTTEYDDWVSSAFINCCGD,-0.475 ± 0.41
8,GIYGQWTQ,0.697 ± 0.85
9,ICVLCC,1.15 ± 0.62
10,SSETCTK,-0.024 ± 0.55
11,TRYPLNISEVFRFDFPNRIP,-1.32 ± 2.4
12,RMLQHLVFLAGLNDVFAKGF,1.43 ± 0.15
13,SKIGDEM,-1.29 ± 1.2
14,CTKCYPGVLYYFDCSGPGTR,-0.51 ± 0.65
15,KWGLGFFDWKMKYHFRCYKC,0.033 ± 0.56
16,CKTCFTLRKIF,-0.461 ± 0.38
17,QLLSLCLDQTVKRRYFNFRA,-0.073 ± 0.26
18,RCSCFY,inactive
19,RRLMNMLEGGHMGG,0.083 ± 0.29
20,SMYKMDMSLSTWCWFAWHDH,-0.37 ± 0.45
21,RLDRWKHEMTAVSRCHKARM,1.24 ± 0.74
22,LDLVTGL,1.1 ± 0.66
23,NLEAIRQMQEKIMRRTWLLY,3.03 ± 0.13

# From the supplement of paper PMC12042874
